According to doi:10.1101/2025.01.13.632804:

Columns and labels:
[1] = target: GST-FKBP12 (mouse) (UniProt P26883); test: pull-down
[2] = target: Porcine brain tubulin (growing microtubules) (porcine); test: TIRF microscopy of GFP-CRMP2A on growing microtubules in vitro

Sequence of UniProt P26883 (P26883 whole entry): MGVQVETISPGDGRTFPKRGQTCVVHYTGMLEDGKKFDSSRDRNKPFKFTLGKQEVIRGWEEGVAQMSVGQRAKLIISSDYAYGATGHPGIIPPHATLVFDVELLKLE

Question: Which pull-down signal normalized to the input, relative to CRMP2A without Cdk5 [1] does the source give for “Cdk5-phosphorylated FLAG-CRMP2A (natural protein)” here?
Answer: 0.39

Question: “FLAG-CRMP2AΔ604 (CRMP2A 1-604) (domain or fragment)” was tested. Which pull-down signal normalized to the input, relative to CRMP2A [1] did it give?
Answer: 2.82

Question: For “FLAG-CRMP2A S27A, S623A, expressed under high Cdk5 activity (natural protein)”, which pull-down signal relative to WT CRMP2A in the presence of Cdk5 [1] is on record?
Answer: 2.59

Question: For “FLAG-CRMP2A S623A, expressed under high Cdk5 activity (natural protein)”, which pull-down signal relative to WT CRMP2A in the presence of Cdk5 [1] is on record?
Answer: 1.75

Question: What does the source list for “FLAG-tagged GFP-CRMP2A (natural protein)”?
Answer: length of the GFP-positive ends [2]: 0.297 um; length of the GFP-positive ends (with FKBP12) [2]: 0.133 um; persistence of GFP signal [2]: 33.1 s; persistence of GFP signal (with FKBP12) [2]: 18.7 s

Question: How did the pull-down signal relative to WT CRMP2A in the presence of Cdk5 [1] turn out when “FLAG-CRMP2A S27A, expressed under high Cdk5 activity (natural protein)” was run?
Answer: 2.57
